The target of one assay is EphA4. The assay is described as follows: cell-based or functional assay.
In a further assay the target is EphB2. The assay is described as follows: cell-based or functional assay.

The values below come from patent US9012617.

With pre-clustered EphrinA1-FC (Fc fusion), the One phase association Tau (GPhosEphA ratio fluorescence after Ephrin addition) in the assay with EphA4 was found to be 9.6.

In the case of pre-clustered EphrinB2-FC (Fc fusion), the One phase association Tau (GPhosEphB ratio fluorescence after Ephrin addition) with EphB2 is 9.78.
